Assay results taken from patent publication US20080280346A1 (published 2008).

Target: T1, α-amylase
T1 construct: Coated on ELISA plates at 200 µg/ml in PBS
Assay: ELISA, plate coated with α-amylase, dimer compared with monomeric VamyHlyA

B1: VamyZHlyA (VHH)
VHH: QVQLVESWGGSVQAGGSLRLSCTAPGFTSNSCRMDWYRQAAGKQREWVSSISTDGRTSYADSVKGRFTISKDKAKDTVYLQMNSLKPEDTAIYYCAVRTNGYRPQSHEFRYWGPGTQVTVSS
modifications: Non-covalent homodimer through the GCN4 leucine zipper; one monomer chain is given.
notes: also called dimeric VHH-HlyA polypeptide; VHH-ZEHlyA hybrid
B1 was tested, and the “fold increase in functional affinity (avidity) against the monomeric form” value was 10 fold.
